Target: the molecule itself
Test: SEC

B1: recombinant A/WSN/1933 (H1N1) NP, NΔ7NP with C-terminal His tag (WT) (natural protein)
chain: RSYEQMETDGERQNATEIRASVGKMIGGIGRFYIQMCTELKLSDYEGRLIQNSLTIERMVLSAFDERRNKYLEEHPSAGKDPKKTGGPIYRRVDGKWMRELILYDKEEIRRIWRQANNGDDATAGLTHMMIWHSNLNDATYQRTRALVRTGMDPRMCSLMQGSTLPRRSGAAGAAVKGVGTMVMELIRMIKRGINDRNFWRGENGRRTRIAYERMCNILKGKFQTAAQRAMVDQVRESRNPGNAEFEDLIFLARSALILRGSVAHKSCLPACVYGPAVASGYDFEREGYSLVGIDPFRLLQNSQVYSLIRPNENPAHKSQLVWMACHSAAFEDLRVSSFIRGTKVVPRGKLSTRGVQIASNENMETMESSTLELRSRYWAIRTRSGGNTNQQRASSGQISIQPTFSVQRNLPFDRPTIMAAFTGNTEGRTSDMRTEIIRLMESARPEDVSFQGRGVFELSDEKAASPIVPSFDMSNEGSYFFGDNAEEYDN
notes: also called WT NP; pET28a-NΔ7NP
  binding result: binds

Reference: PMC12788653 (PLOS Pathogens, 2025)
